Laboratory results as given in publication PMC1561584.

Molecular target: LexA-UNC-119 (C. elegans) (UniProt Q10658)
Assay: two-hybrid; LexA baits and GAD preys in strain L40; data not shown

Chain of UniProt Q10658 (Q10658 whole entry): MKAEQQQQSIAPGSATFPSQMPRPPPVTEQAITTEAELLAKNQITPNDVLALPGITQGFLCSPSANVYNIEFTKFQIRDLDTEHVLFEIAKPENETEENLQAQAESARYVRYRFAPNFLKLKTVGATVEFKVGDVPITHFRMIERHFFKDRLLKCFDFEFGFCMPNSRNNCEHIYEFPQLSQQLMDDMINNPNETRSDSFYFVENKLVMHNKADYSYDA

strength of interaction relative to ARL-3 FL (β-galactosidase activity) (fold of ARL-3 FL): 0.2
Substance: ARL-3Δ17 (domain or fragment)
